Results reported in the supplement of paper PMC11246515.
± gives the standard deviation of the averaged measurements.

Assay: total protein half-life in vivo (active degradation + dilution); higher = more stable protein
[1] = E. coli NCM3722 delta-clpP delta-lon delta-hslV, growth: N-lim chemostat, doubling time 6 h
[2] = E. coli NCM3722 delta-clpP, growth: N-lim chemostat, doubling time 6 h
[3] = E. coli NCM3722 delta-hslV, growth: N-lim chemostat, doubling time 6 h
[4] = E. coli NCM3722 delta-lon, growth: N-lim chemostat, doubling time 6 h
[5] = E. coli NCM3722 delta-smpB, growth: N-lim chemostat, doubling time 6 h
[6] = wild type E. coli NCM3722, growth: C-lim chemostat, doubling time 6 h
[7] = wild type E. coli NCM3722, growth: C-lim chemostat, doubling time 12 h
[8] = wild type E. coli NCM3722, growth: N-lim chemostat, doubling time 6 h
[9] = wild type E. coli NCM3722, growth: N-lim chemostat, doubling time 12 h
[10] = wild type E. coli NCM3722, growth: P-lim chemostat, doubling time 6 h
[11] = wild type E. coli NCM3722, growth: P-lim chemostat, doubling time 12 h
[12] = wild type E. coli NCM3722, growth: C-lim chemostat, doubling time 3 h

MKGRLLDAVPLSSLTGVGAALSNKLAKINLHTVQDLLLHLPLRYEDRTHLYPIGELLPGVYATVEGEVLNCNISFGGRRMMTCQISDGSGILTMRFFNFSAAMKNSLAAGRRVLAYGEAKRGKYGAEMIHPEYRVQGDLSTPELQETLTPVYPTTEGVKQATLRKLTDQALDLLDTCAIEELLPPELSQGMMTLPEALRTLHRPPPTLQLSDLETGQHPAQRRLILEELLAHNLSMLALRAGAQRFHAQPLSANDTLKNKLLAALPFKPTGAQARVVAEIERDMALDVPMMRLVQGDVGSGKTLVAALAALRAIAHGKQVALMAPTELLAEQHANNFRNWFAPLGIEVGWLAGKQKGKARLAQQEAIASGQVQMIVGTHAIFQEQVQFNGLALVIIDEQHRFGVHQRLALWEKGQQQGFHPHQLIMTATPIPRTLAMTAYADLDTSVIDELPPGRTPVTTVAIPDTRRTDIIDRVHHACITEGRQAYWVCTLIEESELLEAQAAEATWEELKLALPELNVGLVHGRMKPAEKQAVMASFKQGELHLLVATTVIEVGVDVPNASLMIIENPERLGLAQLHQLRGRVGRGAVASHCVLLYKTPLSKTAQIRLQVLRDSNDGFVIAQKDLEIRGPGELLGTRQTGNAEFKVADLLRDQAMIPEVQRLARHIHERYPQQAKALIERWMPETERYSNA
total protein half-life in vivo [1]: 5.83 ± 0.22 h | total protein half-life in vivo [2]: 5.05 ± 0.14 h | total protein half-life in vivo [3]: 5.74 ± 0.61 h | total protein half-life in vivo [4]: 5.32 ± 0.16 h | total protein half-life in vivo [5]: 5.01 ± 0.36 h | total protein half-life in vivo [6]: 6.17 ± 0.47 h | total protein half-life in vivo [7]: 10.5 ± 0.46 h | total protein half-life in vivo [8]: 4.91 ± 0.11 h | total protein half-life in vivo [9]: 8.73 ± 0.86 h | total protein half-life in vivo [10]: 6.25 ± 0.072 h | total protein half-life in vivo [11]: 11.3 ± 0.53 h

MKGSYKSRWVIVIVVVIAAIAAFWFWQGRNDSRSAAPGATKQAQQSPAGGRRGMRSGPLAPVQAATAVEQAVPRYLTGLGTITAANTVTVRSRVDGQLIALHFQEGQQVKAGDLLAEIDPSQFKVALAQAQGQLAKDKATLANARRDLARYQQLAKTNLVSRQELDAQQALVSETEGTIKADEASVASAQLQLDWSRITAPVDGRVGLKQVDVGNQISSGDTTGIVVITQTHPIDLVFTLPESDIATVVQAQKAGKPLVVEAWDRTNSKKLSEGTLLSLDNQIDATTGTIKVKARFNNQDDALFPNQFVNARMLVDTEQNAVVIPTAALQMGNEGHFVWVLNSENKVSKHLVTPGIQDSQKVVIRAGISAGDRVVTDGIDRLTEGAKVEVVEAQSATTPEEKATSREYAKKGARS
total protein half-life in vivo [1]: 6.33 ± 0.75 h | total protein half-life in vivo [4]: 6.148 ± 0.046 h | total protein half-life in vivo [5]: 6.07 ± 0.51 h | total protein half-life in vivo [6]: 6.25 ± 0.65 h | total protein half-life in vivo [7]: 12.3 ± 0.27 h | total protein half-life in vivo [8]: 6.1255 ± 0.0044 h | total protein half-life in vivo [9]: 13.2 ± 0.32 h | total protein half-life in vivo [10]: 5.8716 ± 0.00037 h | total protein half-life in vivo [11]: 10.5 ± 0.89 h

MKHYSIQPANLEFNAEGTPVSRDFDDVYFSNDNGLEETRYVFLGGNQLEVRFPEHPHPLFVVAESGFGTGLNFLTLWQAFDQFREAHPQAQLQRLHFISFEKFPLTRADLALAHQHWPELAPWAEQLQAQWPMPLPGCHRLLLDEGRVTLDLWFGDINELTSQLDDSLNQKVDAWFLDGFAPAKNPDMWTQNLFNAMARLARPGGTLATFTSAGFVRRGLQDAGFTMQKRKGFGRKREMLCGVMEQTLPLPCSAPWFNRTGSSKREAAIIGGGIASALLSLALLRRGWQVTLYCADEAPALGASGNRQGALYPLLSKHDEALNRFFSNAFTFARRFYDQLPVKFDHDWCGVTQLGWDEKSQHKIAQMLSMDLPAELAVAVEANAVEQITGVATNCSGITYPQGGWLCPAELTRNVLELAQQQGLQIYYQYQLQNLSRKDDCWLLNFAGDQQATHSVVVLANGHQISRFSQTSTLPVYSVAGQVSHIPTTPELAELKQVLCYDGYLTPQNPANQHHCIGASYHRGSEDTAYSEDDQQQNRQRLIDCFPQAQWAKEVDVSDKEARCGVRCATRDHLPMVGNVPDYEATLVEYASLAEQKDEAVSAPVFDDLFMFAALGSRGLCSAPLCAEILAAQMSDEPIPMDASTLAALNPNRLWVRKLLKGKAVKAG
total protein half-life in vivo [1]: 4.59 ± 0.099 h | total protein half-life in vivo [2]: 4.792 ± 0.021 h | total protein half-life in vivo [3]: 4.36 ± 0.24 h | total protein half-life in vivo [4]: 4.42 ± 0.19 h | total protein half-life in vivo [5]: 3.84 ± 0.39 h | total protein half-life in vivo [12]: 2.83 ± 0.03 h | total protein half-life in vivo [6]: 5.48 ± 0.74 h | total protein half-life in vivo [7]: 9.73 ± 0.51 h | total protein half-life in vivo [8]: 4.41 ± 0.17 h | total protein half-life in vivo [9]: 8.97 ± 0.84 h | total protein half-life in vivo [10]: 4.57 ± 0.22 h | total protein half-life in vivo [11]: 7.48 ± 1 h

MKIELTVNGLKIQAQYQNEEIENVHKPLLHMLAALQTVNPQRRTVVFLCAPPGTGKSTLTTFWEYLAQQDPELPAIQTLPMDGFHHYNSWLDAHQLRPFKGAPETFDVAKLTENLRQVVEGDCTWPQYDRQKHDPVEDALHVTAPLVIVEGNWLLLDDEKWLELASFCDFSIFIHAPAQILRERLISRKIAGGLTRQVAEAFYARTDGPNVERVLMNSRQANLIVEMTEEGRYHFTS
total protein half-life in vivo [1]: 5.96 h | total protein half-life in vivo [2]: 1.31 h

MKIISKMLVGALALAVTNVYAAELMTKAEFEKVESQYEKIGDISTSNEMSTADAKEDLIKKADEKGADVLVLTSGQTDNKIHGTANIYKKK
total protein half-life in vivo [1]: 5.25 ± 1.4 h | total protein half-life in vivo [2]: 5.09 ± 0.88 h | total protein half-life in vivo [3]: 5.83 ± 1 h | total protein half-life in vivo [4]: 5.4 ± 0.39 h | total protein half-life in vivo [5]: 4.12 ± 0.067 h | total protein half-life in vivo [12]: 2.86 ± 0.34 h | total protein half-life in vivo [6]: 4.78 ± 0.76 h | total protein half-life in vivo [7]: 5.78 ± 0.63 h | total protein half-life in vivo [8]: 5.28 ± 0.32 h | total protein half-life in vivo [9]: 9.55 ± 3.1 h | total protein half-life in vivo [10]: 4.64 ± 1.1 h | total protein half-life in vivo [11]: 9.62 ± 0.2 h

MKIITCFKLVPEEQDIVVTPEYTLNFDNADAKISQFDLNAIEAASQLATDDDEIAALTVGGSLLQNSKVRKDVLSRGPHSLYLVQDAQLEHALPLDTAKALAAAIEKIGFDLLIFGEGSGDLYAQQVGLLVGEILQLPVINAVSAIQRQGNTLVIERTLEDDVEVIELSVPAVLCVTSDINVPRIPSMKAILGAGKKPVNQWQASDIDWSQSAPLAELVGIRVPPQTERKHIIIDNDSPEAIAELAEHLKKALN
total protein half-life in vivo [4]: 4.32 h | total protein half-life in vivo [12]: 0.95 h

MKIITCYKCVPDEQDIAVNNADGSLDFSKADAKISQYDLNAIEAACQLKQQAAEAQVTALSVGGKALTNAKGRKDVLSRGPDELIVVIDDQFEQALPQQTASALAAAAQKAGFDLILCGDGSSDLYAQQVGLLVGEILNIPAVNGVSKIISLTADTLTVERELEDETETLSIPLPAVVAVSTDINSPQIPSMKAILGAAKKPVQVWSAADIGFNAEAAWSEQQVAAPKQRERQRIVIEGDGEEQIAAFAENLRKVI
total protein half-life in vivo [12]: 2.81 ± 0.21 h | total protein half-life in vivo [6]: 5.04 h | total protein half-life in vivo [7]: 10.2 h
